Results as given in article PMC5785985, “Molecular snapshots of APE1 proofreading mismatches and removing DNA damage”.

Columns and labels:
[1] = target: T1, APE1 (ΔAPE1 C138A) (Homo sapiens, UniProt P27695 44-318, C138A); assay: X-ray crystallography; 5 mM CaCl2, no metal resolved; Crystallization: 7-14% PEG 20K, 100 mM sodium citrate pH 5.0, 15% glycerol, 5 mM CaCl2, 20 °C; 0.56 mM DNA, 10-12 mg/ml APE1; data at 100 K; settings: protein: recombinant; nicked duplex, three strands 1:1:1, blunt ends, C/T mismatch at 3' end of nick
T1 sequence (P27695 44-318 C138A): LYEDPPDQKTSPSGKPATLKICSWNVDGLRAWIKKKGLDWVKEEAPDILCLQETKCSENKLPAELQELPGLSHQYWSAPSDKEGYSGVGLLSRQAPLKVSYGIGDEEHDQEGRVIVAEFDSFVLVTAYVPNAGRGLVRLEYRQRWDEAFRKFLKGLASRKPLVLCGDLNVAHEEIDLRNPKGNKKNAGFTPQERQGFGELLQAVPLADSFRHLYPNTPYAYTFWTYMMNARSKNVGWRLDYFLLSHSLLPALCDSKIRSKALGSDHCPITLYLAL

[2] = target: T1, APE1 (ΔAPE1 C138A); assay: X-ray crystallography (2.10 Å); no metal resolved; Crystallization: 7-14% PEG 20K, 100 mM sodium citrate pH 5.0, 15% glycerol, 5 mM CaCl2, 20 °C; 0.56 mM DNA, 10-12 mg/ml APE1; data at 100 K; settings: protein: recombinant; nicked duplex, three strands 1:1:1, blunt ends, C/T mismatch at 3' end of nick
[3] = target: T1, APE1 (ΔAPE1 C138A); assay: X-ray crystallography (2.3 Å); MgCl2 soak 2.5 h, no metal resolved; Crystallization: 7-14% PEG 20K, 100 mM sodium citrate pH 5.0, 15% glycerol, 5 mM CaCl2, 20 °C; 0.56 mM DNA, 10-12 mg/ml APE1; data at 100 K; settings: protein: recombinant; 1-nt gapped duplex, three strands, blunt ends
[4] = target: T1, APE1 (ΔAPE1 C138A); assay: X-ray crystallography (2.6 Å); Crystallization: 7-14% PEG 20K, 100 mM sodium citrate pH 5.0, 15% glycerol, 5 mM CaCl2, 20 °C; 0.56 mM DNA, 10-12 mg/ml APE1; data at 100 K; settings: protein: recombinant; nicked duplex, three strands 1:1:1, blunt ends, fully paired
[5] = target: APE1 F266A (ΔAPE1 C138A F266A) (Homo sapiens, UniProt P27695 44-318, C138A;F266A); assay: X-ray crystallography; Crystallization: 7-14% PEG 20K, 100 mM sodium citrate pH 5.0, 15% glycerol, 5 mM CaCl2, 20 °C; 0.56 mM DNA, 10-12 mg/ml APE1; data at 100 K; settings: protein: recombinant; nicked duplex, three strands 1:1:1, blunt ends, C/T mismatch at 3' end of nick
Chain of APE1 F266A (ΔAPE1 C138A F266A) (P27695 44-318 C138A/F266A): as the sequence (P27695 44-318 C138A) above, with F223A counted along it

B1: 21-mer nicked duplex, 3' C/T mismatch (dsDNA)
DNA 1: GGATCCGTCGATCGCATCAGC
DNA 2: GCTGATGCGC
DNA 3: TCGACGGATCC
modifications: 5'-phosphate on strand 3
[1]
  binding result: binds

B2: 21-mer nicked duplex, 3' C/T mismatch, phosphorothioate (dsDNA)
DNA 1: GGATCCGTCGATCGCATCAGC
DNA 2: GCTGATGCGC
DNA 3: TCGACGGATCC
modifications: phosphorothioate 5' to the 3'-terminal C of strand 2 (Sp and Rp); 5'-phosphate on strand 3
[2]
  binding result: binds

B3: 21-mer duplex with 1-nt gap (exo product) (dsDNA)
DNA 1: GGATCCGTCGATCGCATCAGC
DNA 2: GCTGATGCG
DNA 3: TCGACGGATCC
modifications: 5'-phosphate on strand 3; 3'-OH on strand 2
[3]
  binding result: binds

B4: 21-mer nicked duplex, 3' C/G match (dsDNA)
DNA 1: GGATCCGTCGAGCGCATCAGC
DNA 2: GCTGATGCGC
DNA 3: TCGACGGATCC
modifications: 5'-phosphate on strand 3
[4]
  binding result: binds

B5: 21-mer nicked duplex, 3' C/T mismatch (F266A crystal) (dsDNA)
DNA 1: GGATCCGTCGATCGCATCAGC
DNA 2: GCTGATGCGC
DNA 3: TCGACGGATCC
modifications: 5'-phosphate on strand 3; phosphorothioate not stated for this crystal
[5]
  binding result: binds
